Assays:
[1] = system: DinJ R13A (Lacticaseibacillus paracasei 4366); assay: EMSA; conditions: complete loss of binding up to 1.5 uM; EMSA: 2 nM DNA, 128 ng salmon sperm DNA in 10 uL, 50 mM Tris-HCl pH 7.5, 50 mM KCl, 5% glycerol, room temperature 10 min, 6% native PAGE in TBE; RNAP …
[2] = system: DinJ;YafQ_pa4366 (Lacticaseibacillus paracasei 4366;Lacticaseibacillus paracasei 4366); assay: EMSA; conditions: EMSA: 2 nM DNA, 128 ng salmon sperm DNA in 10 uL, 50 mM Tris-HCl pH 7.5, 50 mM KCl, 5% glycerol, room temperature 10 min, 6% native PAGE in TBE; RNAP …
[3] = system: DinJ;YafQ_pa2333 (Lacticaseibacillus paracasei 4366;Lacticaseibacillus paracasei 2333); assay: EMSA; conditions: EMSA: 2 nM DNA, 128 ng salmon sperm DNA in 10 uL, 50 mM Tris-HCl pH 7.5, 50 mM KCl, 5% glycerol, room temperature 10 min, 6% native PAGE in TBE; RNAP …
[4] = system: T1, DinJ;YafQ_pa4366 (Lacticaseibacillus paracasei 4366;Lacticaseibacillus paracasei 4366), ORF:82b9b73a+ORF:f6e62217; assay: competition; conditions: EMSA: 2 nM DNA, 128 ng salmon sperm DNA in 10 uL, 50 mM Tris-HCl pH 7.5, 50 mM KCl, 5% glycerol, room temperature 10 min, 6% native PAGE in TBE; RNAP …
T1 sequence 1: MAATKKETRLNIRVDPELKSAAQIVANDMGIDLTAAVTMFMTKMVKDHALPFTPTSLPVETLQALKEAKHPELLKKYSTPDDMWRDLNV
T1 sequence 2: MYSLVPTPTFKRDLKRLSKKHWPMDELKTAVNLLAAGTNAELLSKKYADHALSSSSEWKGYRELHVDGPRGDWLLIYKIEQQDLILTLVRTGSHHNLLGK

Substance | Kd [1] | Kd [2] | Kd [3] | binding [4]
194-bp dinJ-yafQ promoter fragment | > 1500 nM | 44 nM | 79 nM | –
CGTCCTCAAGCTGCTCTTGTGTTAATGGTTTCTTTTTTGTGCTCATACGTTAAATCTATCACCGCAAGGGATAAATATCTAACACCGTGCGTGTTGACTATTTTACCTCTGGCGGTGATAATGGTTGCATGTACTAAGGAGGTTGTATGGAACAACGCATAACCCTGAAAGATTATGCAATGCGCTTTGGGCAAAC (double strand) [196-bp lambda PR promoter fragment] | – | – | – | no binding
